Measurements reported in the supplement of paper PMC9170038.

Tested on: MS2 coat protein
Test: apparent KD of MS2 coat protein; designed switch direction (-1 OFF switch, 1 ON switch): -1; higher = weaker reporter binding
Summary of the method: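 Stalled E. coli RNA polymerase transcribed designed RNA switches on Illumina chips, which were then titrated with SNAP-549-labelled MS2 coat protein, doubling from 0.7 or 1.5 nM to 3 µM. Steps lasted from 0.8–1.5 h at the lowest concentration to 10–20 min at the highest. The apparent KD is each design's median over clusters of curve-fitted normalised fluorescence.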

[1] = input ligand: microRNA oligo, concentration not stated
[2] = Eterna round: R95, input ligand: microRNA oligo, concentration not stated

For “UAUUAGCAAGCAAAUGGGUACAUGAGGAUCACCCAUGUGCUCGUCUUAUAAGGUACUGUGCCGAAAGUCACGGUACC [mod--Eli2] (Eterna round: R97, puzzle: Sensor, turn-off variant 1)”, the “apparent KD of MS2 coat protein” value (input ligand: FMN 200 uM) was 23 nM and the “apparent KD of MS2 coat protein” value (input ligand: none) was 23.4 nM.

For “UAUUAGCAAGCAACUGGGUACAUGAGGAUCACCCAUGUGCUCGUCUUAUAAGGUACUGUGACGAAAGUCACGGUACC [mod--Eli] (Eterna round: R97, puzzle: Sensor, turn-off variant 1)”, the “apparent KD of MS2 coat protein” value (input ligand: FMN 200 uM) was 17.4 nM and the “apparent KD of MS2 coat protein” value (input ligand: none) was 16.6 nM.

For “UAUUAGCAAGCGAGAUCCCACAUGAGGAUCACCCAUGUAAUAAAGCAUCCAGAAUUACUGGGUGCAGCUCGUCUUAU [Winner reversed engineered 11] (Eterna round: R97, puzzle: Sensor, turn-off variant 1)”, the “apparent KD of MS2 coat protein” value (input ligand: FMN 200 uM) was 32.7 nM and the “apparent KD of MS2 coat protein” value (input ligand: none) was 31 nM.

With “UAUUAGCAAGCGAGAUCCCACAUGAGGAUCACCCAUGUGCUCGUCUGCUCCAGAAUUACUGGAGCAGCUCGUCUUAU [Winner reversed engineered 19] (Eterna round: R97, puzzle: Sensor, turn-off variant 1)” the “apparent KD of MS2 coat protein” value (input ligand: FMN 200 uM) was 21.7 nM and the “apparent KD of MS2 coat protein” value (input ligand: none) was 22.4 nM.

With “UAUUAGCAAGCGAGAUCCCACAUGAGGAUCACCCAUGUGCUCGUCUUAUAAGGUACUGUGACGAGAGUCACGGUACC [Mat - Sensor, turn-off var - Eli Mod - D17] (Eterna round: R97, puzzle: Sensor, turn-off variant 1)” the “apparent KD of MS2 coat protein” value (input ligand: FMN 200 uM) was 16.4 nM and the “apparent KD of MS2 coat protein” value (input ligand: none) was 13.9 nM.

“UAUUAGCAAGCGAGGUCCCACAUGAGGAUCACCCAUGUGCUCGUCUUAUAAGGUACUGUGACGAUAGUCACGGUACC [Mat - Sensor, turn-off var - Eli Mod - D33] (Eterna round: R97, puzzle: Sensor, turn-off variant 1)” was tested, and the “apparent KD of MS2 coat protein” value (input ligand: FMN 200 uM) was 14.6 nM and the “apparent KD of MS2 coat protein” value (input ligand: none) was 14.6 nM.

For “UAUUAGCAAGUAAGAUCCCACAUGAGGAUCACCCAUGUGCUCGUCUUAUAAGGUACUGUGACGAGAGUCACGGUACC [Mat - Sensor, turn-off var - Eli Mod - D45] (Eterna round: R97, puzzle: Sensor, turn-off variant 1)”, the “apparent KD of MS2 coat protein” value (input ligand: FMN 200 uM) was 16.4 nM and the “apparent KD of MS2 coat protein” value (input ligand: none) was 19.1 nM.

With “UAUUAGCGAGGAUAUACAUGAGGAUCACCCAUGUGAUCCUAAGGCUGAUAAAGCCUAUGUAGAAGGCGCAAAAG [jl-ex3.4.51 ViennaUCT mod] (Eterna round: R97, puzzle: Exclusion 3)” the “apparent KD of MS2 coat protein” value (input ligand: FMN 200 uM) was 227 nM and the “apparent KD of MS2 coat protein” value (input ligand: none) was 421 nM.

In the case of “UAUUAGUAAGGAUAUCCCACGUAGGACGAAAGUCCUACGUGGGAGAAGGUACAUGAGGAUCACCCAUGUCUAUU [Mod of Fisker 12 - Jieux - Exclusion 4] (Eterna round: R97, puzzle: Exclusion 4)”, the “apparent KD of MS2 coat protein” value (input ligand: FMN 200 uM) was 20.4 nM and the “apparent KD of MS2 coat protein” value (input ligand: none) was 18.7 nM.

In the case of “UAUUAGUAAGGAUAUGAGACGUAGGACUAAUGUCCUACGUCUCAGAAGGUACAUGAGGAUCACCCAUGUUUAUU [Mod of Fisker 8 - Jieux - Exclusion 4] (Eterna round: R97, puzzle: Exclusion 4)”, the “apparent KD of MS2 coat protein” value (input ligand: FMN 200 uM) was 23.5 nM and the “apparent KD of MS2 coat protein” value (input ligand: none) was 19.3 nM.

For “UAUUAGUAAGGAUAUGAGUCGUAGAACGAAAGUACUACGUCUCAGAAGGUACAUGAGGAUCACCCAUGUUCAUU [Mod of Fisker 3 - Jieux - Exclusion 4] (Eterna round: R97, puzzle: Exclusion 4)”, the “apparent KD of MS2 coat protein” value (input ligand: FMN 200 uM) was 21.8 nM and the “apparent KD of MS2 coat protein” value (input ligand: none) was 13.5 nM.

“UAUUAUAAUGUAGGAUAUCUGCACGAUUAGUGCAGAGAAGGACAUGAGGAUCACCCAUGUAUAGUAGCUUCGGCUACAUUAUUU [ENG1-B1] (Eterna round: R96, puzzle: Exclusion NG 1)” was tested, and the “apparent KD of MS2 coat protein” value (input ligand: FMN 200 uM) was 114 nM, the “apparent KD of MS2 coat protein” value [1] was 60.7 nM and the “apparent KD of MS2 coat protein” value (input ligand: none) was 77.5 nM.

For “UAUUAUGCAAGCAGGUCCCACAUGAGGAUCACCCAUGUGCUCGUCUUAUAAGGUACUGUGACGAAAGUCACGGUACC [Elimod 15 - Jieux - Sensor, turn-off variant 1] (Eterna round: R97, puzzle: Sensor, turn-off variant 1)”, the “apparent KD of MS2 coat protein” value (input ligand: FMN 200 uM) was 37.6 nM and the “apparent KD of MS2 coat protein” value (input ligand: none) was 37.9 nM.

For “UAUUCGCGAGGAUAUGCAGUCGAGUCCAUUACGUGUCUGGGACUUGAGGAUCACCCAAGUAGAAGGCGUCUCAG [salish99_ex2_r4_641] (Eterna round: R97, puzzle: Exclusion 2)”, the “apparent KD of MS2 coat protein” value (input ligand: FMN 200 uM) was 160 nM and the “apparent KD of MS2 coat protein” value (input ligand: none) was 194 nM.

With “UAUUCUAGAUAGGAUAUACUUUAUUUUUUUUUCGUAGAAGGAUCUACAUGAGGAUCACCCAUGUUAACAGCAGU [JR_E6_Sub009] (puzzle: Exclusion 6)” the “apparent KD of MS2 coat protein” value [2] was 50.5 nM.

In the case of “UAUUCUGCGCUCGUCUUAUACAUGAGGAUCACCCAUGUUCUCAAGGUCUUAUGUACUGACACGAAAGUGUUAGUAAU [AK-miRNA-r3-3] (Eterna round: R97, puzzle: Sensor, turn-off variant 1)”, the “apparent KD of MS2 coat protein” value (input ligand: FMN 200 uM) was 36.3 nM and the “apparent KD of MS2 coat protein” value (input ligand: none) was 41.6 nM.

“UAUUUAAGAGGAUAUACAUGAGGAUCACCCAUGUAAAAUAAAAUAGAUAAUUUUUUAUGUAGAAGGCUUGGGUA [-12.7, -11.42 kcal, A 39%] (Eterna round: R97, puzzle: Exclusion 3)” was tested, and the “apparent KD of MS2 coat protein” value (input ligand: FMN 200 uM) was 38.5 nM and the “apparent KD of MS2 coat protein” value (input ligand: none) was 40 nM.

For “UAUUUGCAAGCGAGAUCCCACAUGAGGAUCACCCAUGUGCUCGUCUUAUAAGGUACUGUGACGAAAGUCACGGUACC [Sensor 3, v1 - 91 v26] (Eterna round: R97, puzzle: Sensor, turn-off variant 1)”, the “apparent KD of MS2 coat protein” value (input ligand: FMN 200 uM) was 16.5 nM and the “apparent KD of MS2 coat protein” value (input ligand: none) was 13.7 nM.

For “UAUUUGUAAGGAUAUCUCGUCAUGGAGGAAACUCCAUGACGAGAGAAGGUACAUGAGGAUCACCCAUGUCUAUU [Mod of Fisker 23 - Jieux - Exclusion 4] (Eterna round: R97, puzzle: Exclusion 4)”, the “apparent KD of MS2 coat protein” value (input ligand: FMN 200 uM) was 26.2 nM and the “apparent KD of MS2 coat protein” value (input ligand: none) was 18.6 nM.

With “UAUUUGUGAGGAUAUGAGUCGUAGAACAAUAGUACUACGUCUCAGAAGGCACAUGAGGAUCACCCAUGUACCUC [Fiskers Ex 4 Super Stable 44 mod 30] (puzzle: Exclusion 4)” the “apparent KD of MS2 coat protein” value [2] was 16.9 nM.

For “UCAAGUAUGUAGGAUAUCGAUGUCGAAAGACAUCGAGAAGGACGUACAUGAGGAUCACCCAUGUAACUUGCAUG [Exclusion 6 - B - 10:f] (Eterna round: R96, puzzle: Exclusion 6)”, the “apparent KD of MS2 coat protein” value (input ligand: FMN 200 uM) was 159 nM, the “apparent KD of MS2 coat protein” value [1] was 112 nM and the “apparent KD of MS2 coat protein” value (input ligand: none) was 220 nM.

For “UCAAGUAUGUAGGAUAUCGAUGUCGAAAGACAUCGAGAAGGACGUACAUGAGGAUCACCCAUGUAACUUGCAUG [Exclusion 6 - B - 10:f] (puzzle: Exclusion 6)”, the “apparent KD of MS2 coat protein” value (Eterna round: R95, input ligand: FMN 200 uM) was 32.2 nM, the “apparent KD of MS2 coat protein” value [2] was 44.6 nM and the “apparent KD of MS2 coat protein” value (Eterna round: R95, input ligand: none) was 42.3 nM.

For “UCACGGGACUAAGGAUAUAUGUGUACCAUUUUCAUAGAAGGUAGAAUGUUUGAUCAUAAACUAAACAUGAGGAUCACCCAUGUU [JR_ExcNG1_Sub091] (Eterna round: R96, puzzle: Exclusion NG 1)”, the “apparent KD of MS2 coat protein” value [1] was 20.6 nM.

With “UCACGGGACUGAGGAUAUACAUUUAUUAUUUUUGUAGAAGGCAGAAUGUUAGUUUUUUCACUAUACAUGAGGAUCACCCAUGUU [JR_ExcNG1_Sub084] (Eterna round: R96, puzzle: Exclusion NG 1)” the “apparent KD of MS2 coat protein” value [1] was 20.6 nM.

“UCAGAGCGAGGAUAUGCUGGUGUUAUUCACAUUUGUCCGCGACAUGAGGAUCACCCAUGUAGAAGGCGUAGCCA [Eternabot (L2) Solution 44] (Eterna round: R97, puzzle: Exclusion 2)” was tested, and the “apparent KD of MS2 coat protein” value (input ligand: FMN 200 uM) was 104 nM and the “apparent KD of MS2 coat protein” value (input ligand: none) was 76.9 nM.
